Consider three molecules from patent US20250269018A1, “COMBINED CANCER THERAPY WITH AN EPITHELIAL CELL ADHESION MOLECULE (EPCAM) INHIBITOR AND A HEPATOCYTE GROWTH FACTOR RECEPTOR (HGFR) INHIBITOR” (ACADEMIA SINICA, priority 2021, published 2025).

In this assay the test system is HGFR signaling. Kind of assay: Western blotting of phosphorylated HGFR, AKT, ERK, FAK in HCT116 cells. It counts as cell-based, human. The conditions noted are these: for phosphorylation of HGFR, AKT, and ERK: FIG. 7D. Here is the method:
FIGS. 2A to 2K. EpEX promotes tumor progression via HGFR signaling. (FIG. 2A) WT or EpCAM knockout (KO) HCT116 and HT29 cells treated with HGF (0.5 nM) for 15 min. The phosphorylation of HGFR, AKT, and ERK was examined by Western blotting. (FIG. 2B) WT or KO HCT116 and HT29 cells were treated with HGF (0.5 nM) with 2% FBS for the indicated times. Cell growth was examined by the WST-1 assay. (FIG. 2C) Starved HCT116 cells were treated with HGFR inhibitor SU11274 (SU, 10 μM) for 1 h then treated with 50 nM of EpEX-His for 15 min. The levels of phosphorylated HGFR, EGFR, AKT, and ERK were examined by Western blotting. HCT116 and HT29 cells were treated with 50 nM EpEX and SU (10 μM). (FIG. 2D) Cell growth was examined by WST-1 assay after treatment for indicated time. (FIG. 2E) HCT116 cells were treated with shLuc or HGFR shRNA then treated with 50 nM of EpEX-His for 15 min. The levels of phosphorylated HGFR, EGFR, ERK, and AKT were examined in HGFR knockdown HCT116 cells by Western blotting. (FIG. 2F) The levels of phosphorylated ADAM17 and presenilin 2 were examined by Western blotting. (FIG. 2G) Active β-catenin nuclear translocation was assay by using Western blotting. (H) HCT116 cells were treated with shLuc or HGFR shRNA then treated with 50 nM of EpEX-His for indicated times. Cell growth was examined by the WST-1 assay. (FIG. 2I) HCT116 cells after shLuc and shHGFR treatment were treated with 50 nM of EpEX-His with 2% FBS for 7 days. Colony formation was examined by crystal violet staining.
FIGS. 6A to 6J. EpAb2-6 inhibits EpCAM and HGFR signaling and promotes active β-catenin and Snail protein degradation via activating GSK3β. (FIG. 6A) HCT116 cells were treated with 10 μg/ml control IgG (normal mouse IgG, NMIgG) or mouse EpAb2-6 (EpAb2-6) for 16 h, followed by treatment with EpEX-His (50 nM) for 15 min. Levels of phosphorylated HGFR, AKT, FAK, GSK3β, ERK, ADAM17, and presenilin 2 were examined by Western blotting. (FIG. 6B) HCT116 cells were treated with 10 μg/ml control IgG or mouse EpAb2-6 for 16 h, followed by treatment without or with HGF (0.5 nM) for 15 min. Levels of phosphorylated HGFR, AKT, and ERK were examined by Western blotting. HCT116 cells were treated with mouse EpAb2-6 (10 μg/ml) and HGF (0.5 nM). (FIG. 6C) Cell migration was examined by the wound healing assay at the indicated times. (FIG. 6D) Cell invasion was assessed by a Transwell assay with matrigel after 24 h. (FIG. 6E) HCT116 cells were treated with NMIgG or EpAb2-6 for 6 h and then immunoprecipitated with anti-EpCAM (IP: EpCAM) or anti-HGFR (IP: HGFR) antibodies, followed by Western blotting. (FIG. 6F) EpEX-His (2 μg/ml) co-treated with 1 μg IgG or EpAb2-6 was added to HGFR-Fc-coated (1 μg/ml) ELISA plates and detected by TMB colorimetric peroxidase assay. (FIG. 6G) EMT associated protein levels were detected by Western blotting in HCT116 cells treated with NMIgG or EpAb2-6 for 24 h. (FIG. 6H) Protein expression was analyzed by Western blotting in HCT116 cells after treatment with EpAb2-6 and 2 μM GSK3β inhibitor (BIO) for 24 h. Quantification of the normalized protein expression in the bottom panel. (FIG. 6I) HCT116 cells were treated with 10 μM MG132 and EpAb2-6 for 6 h before cell collection and subsequent Western blotting. (FIG. 6J) Stability of Snail protein in HCT116 cells treated with NMIgG or EpAb2-6. Cells were treated with cyclohexamide (CHX) 100 μg/ml at the indicated intervals and subjected to Western blotting.
FIGS. 7A to 7G. EpAb2-6 binds EpEX and induces apoptosis by F(ab′)2 and inhibits regulated intramembrane proteolysis (RIP) activation and HGFR signaling. (FIG. 7A) Binding affinity of IgG EpAb2-6 (mouse) and F(ab′)2 to EpEX-His (1 μg/ml) coated overnight was checked using ELISA (OD450). (FIG. 7B) HCT116 cells were treated with 100 μg/ml control IgG, Fc, or F(ab′)2 of EpAb2-6 for 24 h. The apoptotic and necrotic cells were quantified by fluorescein annexin V-FITC/PI double labeling. […]
(In general: In western blotting, separated proteins are transferred to a membrane and probed.)

Where [1] appears, read: HCT116, 10 μg/ml 16 h, then EpEX-His 50 nM 15 min.

“MT201: human anti-EpCAM antibody, adecatumumab (MT201)”: the “phosphorylation of HGFR, AKT, and ERK” value under setting [1] is listed as “did not”.

With `Cc1[nH]c(C=C2C(=O)Nc3ccc(S(=O)(=O)N(C)c4cccc(Cl)c4)cc32)c(C)c1C(=O)N1CCN(C)CC1` (stereo in doubt) [SU11274, (3Z)-N-(3-Chlorophenyl)-3-({3,5-dimethyl-4-[(4-methylpiperazin-1-yl)carbonyl]-1H-pyrrol-2-yl}methylene)-N-methyl-2-oxo-2,3-dihydro-1H-indole-5-sulfonamide], under “HCT116 cells, SU 10 μM 1 h, then 50 nM EpEX-His 15 min, FIG. 2C”, the “EpEX-mediated ERK and AKT phosphorylation” value was “attenuate EpEX-mediated ERK and AKT phosphorylation”.

B1: EpAb2-6: anti-EpCAM neutralizing monoclonal antibody targeting EpEX; VH SEQ ID NO: 15, VL SEQ ID NO: 16 (antibody, listed as Homo sapiens, V domains shown)
VH: VKLQESGPELKKPGETVKISCKASGYTFTDYSMHWVKQAPGKGLKWMGWINTETGEPTYADDFKGRFAFSLETSASTAYLQINNLKNEDTATYFCARTAVYWGQGTTVTVSS
VL: DIQMTQSPSSLSASLGERVSLTCRASQEISVSLSWLQQEPDGTIKRLIYATSTLDSGVPKRFSGSRSGSDYSLTISSLESEDFVDYYCLQYASYPWTFGGGTKLEIKRADAAPTVS
With B1, the “phosphorylation of HGFR, AKT, and ERK” value under setting [1] was “inhibited phosphorylation of HGFR, AKT, and ERK”. Further, the “phosphorylation of HGFR, AKT, ERK, and FAK” value (HCT116, 10 μg/ml 16 h, then EpEX-His 50 nM 15 min, vs control IgG, FIG. 6A) is “decreased phosphorylation of HGFR, AKT, ERK, and FAK”. Besides, the “phosphorylation levels of HGFR, AKT, and ERK” value (HCT116, 10 μg/ml 16 h, without or with HGF 0.5 nM 15 min, FIG. 6B) was “significantly decreased”. Besides, the “levels of phosphorylated HGFR” value (after EpAb2-6 treatment, discussion statement) was “decreased levels of phosphorylated HGFR”.
